The supplement of paper PMC10724198
± gives the standard deviation of the averaged measurements.

Assays:
[1] = system: Saccharomyces cerevisiae; experiment: protein stability index of tFT-peptide fusion (C-terminal peptide) (PSI (0-1 scale)); higher = more stable (slower turnover); conditions: genetic background: wild type; temperature: 30 C
[2] = system: Saccharomyces cerevisiae; experiment: as above
Method: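 MPS profiling in S. cerevisiae of the tFT-X12 degron library: putative degron peptides plus stable controls, 12 aa, fused to the C-terminus of a sfGFP-mCherry timer. Cells are FACS-sorted into 8 mCherry/sfGFP bins and deep-sequenced. PSI runs from 0 (unstable) to 1 (stable). Backgrounds are wild type, das1Δ and doa10Δ at 30 °C, and wild type, das1Δ, cdc34-1 and cdc53-1 at 37 °C; 2-3 technical replicates each.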

[3] = genetic background: cdc34-1, temperature: 37 C
[4] = genetic background: cdc53-1, temperature: 37 C
[5] = genetic background: das1 deletion, temperature: 30 C
[6] = genetic background: das1 deletion, temperature: 37 C
[7] = genetic background: doa10 deletion, temperature: 30 C
[8] = genetic background: wild type, temperature: 30 C
[9] = genetic background: wild type, temperature: 37 C
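Note: PSI is a weighted mean of sequencing reads over stability bins, variants kept only with over 10 reads, mCherry proximal and sfGFP distal, peptide attached via GGGS linker.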

| Sequence | protein stability index [1] | protein stability index [2, 3] | protein stability index [2, 4] | protein stability index [2, 5] | protein stability index [2, 6] | protein stability index [2, 7] | protein stability index [2, 8] | protein stability index [2, 9] |
| --- | --- | --- | --- | --- | --- | --- | --- | --- |
| VLGPRFCFVCHA | 0.3455 ± 0.0025 | 0.555 ± 0.067 | 0.604 ± 0.03 | 0.444 ± 0.039 | 0.6194 ± 0.0023 | 0.223 ± 0.0071 | 0.253 ± 0.033 | 0.4594 ± 0.003 |
| VLLSSSLVFLIS | 0.462 ± 0.044 | 0.597 ± 0.022 | 0.6439 ± 0.0011 | 0.522 ± 0.016 | 0.631 ± 0.018 | 0.385 ± 0.016 | 0.416 ± 0.02 | 0.575 ± 0.0085 |
| VLVCYFCRYISH | 0.485 ± 0.0091 | 0.479 ± 0.059 | 0.579 ± 0.052 | 0.413 ± 0.046 | 0.573 ± 0.011 | 0.365 ± 0.0057 | 0.398 ± 0.021 | 0.5316 ± 0.0028 |
| VLVTFFIRSGVS | 0.411 ± 0.045 | 0.456 ± 0.0087 | 0.54 ± 0.0081 | 0.356 ± 0.042 | 0.536 ± 0.018 | 0.311 ± 0.01 | 0.338 ± 0.028 | 0.49942 ± 1.4e-06 |
| VMFCRFPLRFGC | 0.475 ± 0.026 | 0.662 ± 0.031 | 0.726 ± 0.03 | 0.631 ± 0.0071 | 0.7445 ± 0.0057 | 0.3191 ± 0.0022 | 0.348 ± 0.023 | 0.561 ± 0.021 |
| VPTRRRGNRRPA | 0.788 ± 0.03 | 0.673 ± 0.022 | 0.7259 ± 0.0048 | 0.639 ± 0.021 | 0.725 ± 0.018 | 0.641 ± 0.011 | 0.653 ± 0.015 | 0.706 ± 0.02 |
| VQVLVAIMDGRM | 0.354 ± 0.011 | 0.346 ± 0.023 | 0.4143 ± 0.0016 | 0.371 ± 0.031 | 0.387 ± 0.004 | 0.38 ± 0.039 | 0.37 ± 0.019 | 0.39 ± 0.017 |
| VRFLSLNVLFFC | 0.38 ± 0.033 | 0.54 ± 0.032 | 0.625 ± 0.022 | 0.482 ± 0.025 | 0.628 ± 0.028 | 0.222 ± 0.0066 | 0.244 ± 0.029 | 0.48 ± 0.0046 |
| VRGWLAYLRWII | 0.274 ± 0.018 | 0.58 ± 0.03 | 0.638 ± 0.026 | 0.631 ± 0.027 | 0.724 ± 0.0083 | 0.195 ± 0.012 | 0.205 ± 0.018 | 0.303 ± 0.0047 |
| VSFGELGVEVVG | 0.451 ± 0.022 | 0.709 ± 0.022 | 0.735 ± 0.041 | 0.529 ± 0.017 | 0.736 ± 0.017 | 0.538 ± 0.014 | 0.559 ± 0.018 | 0.7148 ± 0.0022 |
| VSGEWSFLVRVQ | 0.39 ± 0.15 | 0.548 ± 0.026 | 0.573 ± 0.0061 | 0.452 ± 0.025 | 0.61 ± 0.027 | 0.392 ± 0.0066 | 0.411 ± 0.024 | 0.554 ± 0.012 |
| VSISLCVLCPVF | 0.349 ± 0.018 | 0.268 ± 0.01 | 0.319 ± 0.016 | 0.258 ± 0.024 | 0.356 ± 0.0076 | 0.2408 ± 0.0018 | 0.261 ± 0.016 | 0.312 ± 0.008 |
| VSLSWFSCCFVG | 0.386 ± 0.0073 | 0.497 ± 0.066 | 0.556 ± 0.03 | 0.439 ± 0.026 | 0.489 ± 0.023 | 0.376 ± 0.026 | 0.377 ± 0.019 | 0.458 ± 0.01 |
| VSVFSLFLFLRV | 0.421 ± 0.0044 | 0.25 ± 0.047 | 0.194 ± 0.022 | 0.357 ± 0.03 | 0.413 ± 0.045 | 0.531 ± 0.031 | 0.35 ± 0.03 | 0.353 ± 0.049 |
| VSVVLKTQRVVC | 0.4809 ± 0.0012 | 0.595 ± 0.026 | 0.607 ± 0.008 | 0.432 ± 0.039 | 0.60289 ± 0.00044 | 0.3 ± 0.0041 | 0.346 ± 0.033 | 0.535 ± 0.01 |
| VTFWISLVYVLV | 0.218 ± 0.011 | 0.192 ± 0.015 | 0.264 ± 0.022 | 0.18 ± 0.023 | 0.35 ± 0.0028 | 0.148 ± 0.0088 | 0.16 ± 0.017 | 0.279 ± 0.027 |
| VTVWVFVFLRGL | 0.374 ± 0.052 | 0.319 ± 0.0069 | 0.393 ± 0.015 | 0.315 ± 0.029 | 0.454 ± 0.029 | 0.294 ± 0.0043 | 0.302 ± 0.019 | 0.453 ± 0.0035 |
| VVACCVVFWVLP | 0.437 ± 0.086 | 0.232 ± 0.017 | 0.469 ± 0.042 | 0.27 ± 0.028 | 0.481 ± 0.016 | 0.231 ± 0.011 | 0.292 ± 0.022 | 0.507 ± 0.013 |
| VVCLCEYRLHIF | 0.0917 ± 0.047 | 0.203 ± 0.029 | 0.274 ± 0.031 | 0.214 ± 0.034 | 0.399 ± 0.011 | 0.0658 ± 0.017 | 0.0733 ± 0.033 | 0.0928 ± 0.0073 |
| VVFSLLLWLFIS | 0.216 ± 0.029 | 0.256 ± 0.022 | 0.405 ± 0.024 | 0.316 ± 0.047 | 0.47 ± 0.0075 | 0.161 ± 0.003 | 0.168 ± 0.018 | 0.194 ± 0.0057 |
